B1: POMT2 (parent)
chain: LRGGGQVLLGWTLHYFPFFLMGRV
B2: SLC19A2 (parent)
chain: FASLRPSEPFLTPYLLGPDKNLTE
B3: GAGE1 (parent)
chain: RPRRYVQPPEMIGPMRPEQFSDEV

Variants of: B1
Assay: protein stability index of a GFP-peptide fusion (GPS, HEK-293T) (PSI 1-6); higher = more stable
Conditions: c terminus: a fixed tail appended
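Further: lentivirally expressed fusions sorted by FACS into six bins by GFP to DsRed ratio, PSI derived from sequencing read proportions per bin multiplied by bin number.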

Protein stability index of substitutions, site by site:
L20: S 1.7; W 2.38; N 3.25; P 5.95; F 4.18
F18: W 1.2; T 1.98; E 4.02; N 2.04; V 3.11; Y 1.42
H14: Y 3.36; P 2.43; F 3.28; D 4.14
F16: E 3.44; G 3.06; H 3.2; Q 2.26; T 3.4
V7: Y 4.03; Q 1.21; K 4.17; A 2.26; G 3.97; T 1.32; R 2.7; W 2.36; C 1.26; M 2.07
G4: K 3.19; F 1.41; Y 2.25; R 1.38; W 1.47; L 1.27; M 3.71; H 3.5; V 2.52; D 2.16
L13: D 1.29; E 2.93; C 1.51; S 3.02; W 3.5; P 2.64
R2: Q 1.79; W 3.48; K 2.04; S 2.59; Y 2.82; L 2.63; D 3.49; T 1.36; P 2.6
G3: M 1.82; Y 4.15; R 2.12; W 5.12; I 2.59; S 1.68; N 2.48; Q 2.94
Q6: P 3.06; I 2.01; D 1.69; K 2.02; F 2.24; L 2.48
L9: H 1.91; Q 1.61; C 1.75; M 3.23; N 2.66; T 2.66; P 2.59; F 2.91; A 3.06; E 1.89
M21: W 4.41; A 3.45; N 1.43; K 2.16; S 2.79
L8: R 3.14; A 2.97; Y 3.82; N 3; V 1.64
P17: R 3.18; M 4.38; D 4.4; N 2.79; F 2.59; C 2.18; E 1.35; Q 4.16; K 2.55; V 2.54; I 2.09; W 3.06
G10: Y 3.25; P 3.23; S 3.85; V 2.29; F 3.45; N 1.97; T 2.89; Q 3.64; I 1.92; W 2.32; D 3.44
W11: Y 1.2; Q 3; K 3.25; N 4.22; A 1.93; M 1.04; R 2.67; C 3.48; T 2.09; S 1.38; H 2.1; E 1.74
G5: I 4.58; E 3.02; T 2.95; D 3.03; N 3.2; Y 3.6
F19: W 3.22; Y 2.17; G 4.57; S 3.98; A 2.89; N 2.04; Q 4.97
Y15: K 2.92; D 1.72; E 2.31; T 1.39; W 2.28; R 2.02; I 4.09
T12: I 3.35; A 2.59; S 2.1; V 3.16; H 2.35; Y 2.7; L 1.93
V24: I 2.03; A 1.72; C 1.83; Q 2.04; Y 3.27; H 3.69; R 3.15
R23: S 2.85; Y 1.9; E 3.15; W 3.02; D 1.88; I 4.29; C 2.79; T 3.19
G22: A 3.58; C 1.58; Q 1.28; P 2.64; D 3.12; L 3.83
L1: S 2.23; R 3.02; A 3.17; E 2.74; F 3.06; D 2.89; G 2.56

Variants of: B2
Assay: as above
Conditions: c terminus: a fixed tail appended

Protein stability index, by site and new letter:
A2: R 3.08; P 2.6; H 1.63; S 3.02; F 2.19; G 2.74; E 3.63; Q 1.72; Y 2.05; L 2.04; T 1.97; I 1.66; D 3.64; K 2.84; W 2.21; N 3.64; M 2.36; C 1.51; V 2.5
F1: T 3.44; G 4.22; V 3.4; A 4.25; K 3.79; R 3.75; D 4.38; P 3.64; C 2.8; Q 4.19; E 4.2; M 3.65; I 3.47; N 3.81; S 4.12; L 2.93; H 3.58; Y 1.5; W 2.77

Variants of: B3
Assay: as above
Conditions: c terminus: a fixed tail appended

Protein stability index of substitutions, site by site:
E23: Q 3.63; V 3.77; K 3.65; G 3.46; A 3.59; N 3.42; S 3.68; R 3.85; L 3.08; H 3.6; F 2.98; M 2.85; I 2.92; Y 2.76; D 3.77; P 3.63; W 2.95; C 3.58; T 3.75
D22: Q 3.11; P 3.95; S 3.95; Y 2.77; F 2.16; A 3.87; L 2.6; T 3.76; M 3.06; V 2.9; W 2.53; E 3.83; H 3.29; K 3.88; R 3.5; C 3.14; N 3.23; I 1.97; G 3.62
V24: S 4.21; K 4.5; R 4.47; W 4.01; N 4.2; L 3.74; M 3.74; T 4.17; I 3.51; P 4.06; C 3.35; Q 4.18; H 4.46; F 2.74; G 3.58; D 4.09; A 4.52; Y 3.94; E 4.17
Q19: K 3.98; V 3.78; F 3.62; A 3.71; R 3.71; E 3.51; S 3.82; W 3.12; Y 3.92; M 3.58; I 3.78; N 3.79; C 4.16; L 3.63; D 3.69; T 4.09; P 4.11; G 4.28; H 3.62
S21: H 3.55; M 3.44; V 3.64; T 3.71; D 3.98; W 3.01; P 3.99; A 3.69; Q 3.79; G 4.17; L 3.48; N 3.87; F 2.97; C 4.15; K 4; E 3.73; R 4.11; I 2.9; Y 3.63
E18: W 3.16; V 3.32; Y 3.51
F20: Y 3.82; V 4.71; H 4.04; A 4.98; S 4.42; P 4.72; C 4.64; T 4.62; Q 4.84; E 4.97; L 4.5; D 4.91; G 4.85; R 4.64; N 4.8; I 4.31; M 4.08; K 4.92; W 3.94
